These results are taken from US20230331823A1 (HENRY M JACKSON FOUNDATION FOR THE ADVANCEMENT OF MILITARY …, published 2023).

Numbering of substitutions follows the chain as printed.

B1: MoB3-3D8_Fc chimera antibody (Fc fusion)
chain: ARVDQTPQTITKETGESLTINCVLRDSNCALASTDWYRKKSGSTNEESISKGGRYVETVNSGSKSFSLRINDLTVEDSGTYRCNAWDSWETRQLKCDYDVYGGGTVVTVN
B2: ShAb02-Foldon (ShAb02 VNAR-KESlinker-Foldon-3c-His8-Strep) (VNAR)
VNAR: ARVDQTPQTITKETGESLTINCVLRDSNCALASTDWYRKKSGSTNEESISKGGRYVETVNSGSKSFSLRINDLTVEDSGTYRCNAWDSWETRQLKCDYDVYGGGTVVTVNK
B3: ShAb01H06K (ShAb01Hole-06Knob) (bispecific antibody, V domains shown)
V domain 1: ARVDQTPRSVTKETGESLTINCVLRDSNCALSSTHWYRKKSGSTNEERILQGRRYVETVNSGSKSFSLRINDLRVEDSGTYRCKVYWGNSWQDKFCPGLGSYEYGDGTAVTVNS
V domain 2: ARVDQTPRSVTKETGESLTINCVLRDASYALGSTCWYRKKSGSTNEESISKGGRYVETVNSGSKSFSLRINDLTVEDGGTYRCGVGRGLGVGCDYPLCSYSYAACGDGTAVTVNS
B4: ShAb06H02K (ShAb06Hole-02Knob) (bispecific antibody, V domains shown)
V domain 1: B3 V domain 2
V domain 2: B2 VNAR with K111S
B5: ShAb01-Foldon (ShAb01 VNAR-KESlinker-Foldon-3c-His8-Strep) (VNAR)
VNAR: B3 V domain 1 with S114K

The first experiment addresses Spike Ferritin nanoparticle SpFN_pCoV1B-06-PL (PrefLead-S2P.1158op1-del-Ferritin) (SARS-CoV-2 Spike ectodomain fused to …). Briefly: BLI, Fc fusion on AHC probe, SpFN_pCoV1B-06-PL in solution. In general terms: In BLI a coated tip is dipped into the sample, and binding shifts an interference pattern.
For the molecule B1, the binding result was “binds”.

A further experiment addresses T1, SARS-CoV-2 Beta (B.1.351) Spike on pseudovirions (SARS-CoV-2). Briefly: cell-based or functional assay.
Take B2: the “pseudovirus neutralization IC50” value worked out at 0.397 µg/mL and the “pseudovirus neutralization IC80” value was 1.8 µg/mL.

Consider B3, for which the “pseudovirus neutralization IC50” value came out at 1.28 µg/mL and the “pseudovirus neutralization IC80” value was determined as 6.17 µg/mL.

Turning to B4, the “pseudovirus neutralization IC50” value came to 0.18 µg/mL and the “pseudovirus neutralization IC80” value turned out to be 0.424 µg/mL.

With B5, the “pseudovirus neutralization IC50” value came to 0.075 µg/mL and the “pseudovirus neutralization IC80” value turned out to be 0.164 µg/mL.

The next experiment has as its target T2, SARS-CoV-2 Alpha (B.1.1.7) Spike on pseudovirions (SARS-CoV-2). Briefly: cell-based or functional assay.
Consider B2, for which the “pseudovirus neutralization IC50” value worked out at 0.035 µg/mL and the “pseudovirus neutralization IC80” value was 0.104 µg/mL.

As for B3, the “pseudovirus neutralization IC50” value worked out at 1.37 µg/mL and the “pseudovirus neutralization IC80” value stood at 2.65 µg/mL.

For the molecule B4, the “pseudovirus neutralization IC50” value came out at 0.109 µg/mL and the “pseudovirus neutralization IC80” value turned out to be 0.225 µg/mL.

As to B5, the “pseudovirus neutralization IC50” value worked out at 0.119 µg/mL and the “pseudovirus neutralization IC80” value amounted to 0.328 µg/mL.

For a further experiment, the target named is T1, SARS-CoV-2 Beta (B.1.351) Spike on …. Briefly: cell-based or functional assay. This is another data set of the same source.
For B2, the “pseudovirus neutralization IC50” value worked out at 0.02 µg/mL.

As for B5, the “pseudovirus neutralization IC50” value is 0.07 µg/mL.

The next experiment deals with T2, SARS-CoV-2 Alpha (B.1.1.7) Spike on …. Briefly: cell-based or functional assay. The source holds these as a separate data set.
Regarding B2, the “pseudovirus neutralization IC50” value came out at 0.04 µg/mL.

B5: the “pseudovirus neutralization IC50” value was 0.12 µg/mL.
